In patent US20190345228A1 (DUKE UNIVERSITY, published 2019):

B1: (Tn3)4 (designed binder)
chain: GAIEVKDVTDTTALITWAKPWVDPPPLWGCELTYGIKDVPGDRTTIDLQQKHTAYSIGNLKPDTEYEVSLICFDPYGMRSKPAKETFTTGGGGSGGGGSGGGGSGAIEVKDVTDTTALITWAKPWVDPPPLWGCELTYGIKDVPGDRTTIDLQQKHTAYSIGNLKPDTEYEVSLICFDPYGMRSKPAKETFTTGGGGSGGGGSGGGGSGAIEVKDVTDTTALITWAKPWVDPPPLWGCELTYGIKDVPGDRTTIDLQQKHTAYSIGNLKPDTEYEVSLICFDPYGMRSKPAKETFTTGGGGSGGGGSGGGGSGAIEVKDVTDTTALITWAKPWVDPPPLWGCELTYGIKDVPGDRTTIDLQQKHTAYSIGNLKPDTEYEVSLICFDPYGMRSKPAKETFTTGGGGSGGGGSGGGGS
B2: ELPa-(Tn3)4 (designed binder)
chain: VGVPGVGVPGVGVPGVGVPGVGVPGVGVPGVGVPGVGVPGVGVPGVGVPGVGVPGVGVPGVGVPGVGVPGVGVPGVGVPGVGVPGVGVPGVGVPGVGVPGVGVPGVGVPGVGVPGVGVPGVGVPGVGVPGVGVPGVGVPGVGVPGVGVPGVGVPGVGVPGVGVPGVGVPGVGVPGVGVPGVGVPGVGVPGVGVPGVGVPGVGVPGVGVPGVGVPGVGVPGVGVPGVGVPGVGVPGVGVPGVGVPGVGVPGVGVPGVGVPGVGVPGVGVPGVGVPGVGVPGVGVPGVGVPGVGVPGVGVPGVGVPGVGVPGVGVPGVGVPGVGVPGVGVPGVGVPGVGVPGVGVPGVGVPGVGVPGVGVPGVGVPGVGVPGVGVPGVGVPGVGVPGVGVPGVGVPGVGVPGVGVPGVGVPGVGVPGVGVPGVGVPGVGVPGVGVPGVGVPGVGVPGVGVPGVGVPGVGVPGVGVPGVGVPGVGVPGVGVPGVGVPGVGVPGVGVPGVGVPGVGVPGVGVPGVGVPGVGVPGVGVPGVGVPGVGVPGVGVPGVGVPGVGVPGVGVPGVGVPGVGVPGVGVPGVGVPGVGVPGVGVPGVGVPGVGVPGVGVPGGAIEVKDVTDTTALITWAKPWVDPPPLWGCELTYGIKDVPGDRTTIDLQQKHTAYSIGNLKPDTEYEVSLICFDPYGMRSKPAKETFTTGGGGSGGGGSGGGGSGAIEVKDVTDTTALITWAKPWVDPPPLWGCELTYGIKDVPGDRTTIDLQQKHTAYSIGNLKPDTEYEVSLICFDPYGMRSKPAKETFTTGGGGSGGGGSGGGGSGAIEVKDVTDTTALITWAKPWVDPPPLWGCELTYGIKDVPGDRTTIDLQQKHTAYSIGNLKPDTEYEVSLICFDPYGMRSKPAKETFTTGGGGSGGGGSGGGGSGAIEVKDVTDTTALITWAKPWVDPPPLWGCELTYGIKDVPGDRTTIDLQQKHTAYSIGNLKPDTEYEVSLICFDPYGMRSKPAKETFTTGGGGSGGGGSGGGGS
B3: (Tn3)6 (designed binder)
chain: GAIEVKDVTDTTALITWAKPWVDPPPLWGCELTYGIKDVPGDRTTIDLQQKHTAYSIGNLKPDTEYEVSLICFDPYGMRSKPAKETFTTGGGGSGGGGSGGGGSGAIEVKDVTDTTALITWAKPWVDPPPLWGCELTYGIKDVPGDRTTIDLQQKHTAYSIGNLKPDTEYEVSLICFDPYGMRSKPAKETFTTGGGGSGGGGSGGGGSGAIEVKDVTDTTALITWAKPWVDPPPLWGCELTYGIKDVPGDRTTIDLQQKHTAYSIGNLKPDTEYEVSLICFDPYGMRSKPAKETFTTGGGGSGGGGSGGGGSGAIEVKDVTDTTALITWAKPWVDPPPLWGCELTYGIKDVPGDRTTIDLQQKHTAYSIGNLKPDTEYEVSLICFDPYGMRSKPAKETFTTGGGGSGGGGSGGGGSGAIEVKDVTDTTALITWAKPWVDPPPLWGCELTYGIKDVPGDRTTIDLQQKHTAYSIGNLKPDTEYEVSLICFDPYGMRSKPAKETFTTGGGGSGGGGSGGGGSGAIEVKDVTDTTALITWAKPWVDPPPLWGCELTYGIKDVPGDRTTIDLQQKHTAYSIGNLKPDTEYEVSLICFDPYGMRSKPAKETFTTGGGGSGGGGSGGGGS
B4: ELPa-(Tn3)6 (designed binder)
chain: VGVPGVGVPGVGVPGVGVPGVGVPGVGVPGVGVPGVGVPGVGVPGVGVPGVGVPGVGVPGVGVPGVGVPGVGVPGVGVPGVGVPGVGVPGVGVPGVGVPGVGVPGVGVPGVGVPGVGVPGVGVPGVGVPGVGVPGVGVPGVGVPGVGVPGVGVPGVGVPGVGVPGVGVPGVGVPGVGVPGVGVPGVGVPGVGVPGVGVPGVGVPGVGVPGVGVPGVGVPGVGVPGVGVPGVGVPGVGVPGVGVPGVGVPGVGVPGVGVPGVGVPGVGVPGVGVPGVGVPGVGVPGVGVPGVGVPGVGVPGVGVPGVGVPGVGVPGVGVPGVGVPGVGVPGVGVPGVGVPGVGVPGVGVPGVGVPGVGVPGVGVPGVGVPGVGVPGVGVPGVGVPGVGVPGVGVPGVGVPGVGVPGVGVPGVGVPGVGVPGVGVPGVGVPGVGVPGVGVPGVGVPGVGVPGVGVPGVGVPGVGVPGVGVPGVGVPGVGVPGVGVPGVGVPGVGVPGVGVPGVGVPGVGVPGVGVPGVGVPGVGVPGVGVPGVGVPGVGVPGVGVPGVGVPGVGVPGVGVPGVGVPGVGVPGVGVPGVGVPGVGVPGVGVPGVGVPGVGVPGAIEVKDVTDTTALITWAKPWVDPPPLWGCELTYGIKDVPGDRTTIDLQQKHTAYSIGNLKPDTEYEVSLICFDPYGMRSKPAKETFTTGGGGSGGGGSGGGGSGAIEVKDVTDTTALITWAKPWVDPPPLWGCELTYGIKDVPGDRTTIDLQQKHTAYSIGNLKPDTEYEVSLICFDPYGMRSKPAKETFTTGGGGSGGGGSGGGGSGAIEVKDVTDTTALITWAKPWVDPPPLWGCELTYGIKDVPGDRTTIDLQQKHTAYSIGNLKPDTEYEVSLICFDPYGMRSKPAKETFTTGGGGSGGGGSGGGGSGAIEVKDVTDTTALITWAKPWVDPPPLWGCELTYGIKDVPGDRTTIDLQQKHTAYSIGNLKPDTEYEVSLICFDPYGMRSKPAKETFTTGGGGSGGGGSGGGGSGAIEVKDVTDTTALITWAKPWVDPPPLWGCELTYGIKDVPGDRTTIDLQQKHTAYSIGNLKPDTEYEVSLICFDPYGMRSKPAKETFTTGGGGSGGGGSGGGGSGAIEVKDVTDTTALITWAKPWVDPPPLWGCELTYGIKDVPGDRTTIDLQQKHTAYSIGNLKPDTEYEVSLICFDPYGMRSKPAKETFTTGGGGSGGGGSGGGGS

molecular target: TNF-related apoptosis-inducing ligand receptor 2 (TRAILR-2) (human, UniProt O14763 56-440); assay: cell-based or functional assay

Row | Binder | EC50, cell viability assay on Colo205 cells (concentration required to kill 50% of the cells)
1 | B1 | 0.04 nM
2 | B2 | 0.08 nM
3 | B3 | 0.0016 nM
4 | B4 | 0.00078 nM
